Laboratory results reported in the supplement of paper PMC10126150.
± gives the standard deviation of the averaged measurements.

The sequences below were run on ATP (assay: switch fluorescence ratio, 500 uM ATP over buffer (Cy3 cluster intensity, sum of 5 cycles each) (fold (ratio)); higher = stronger signal-on switching upon ATP binding; sequences stand for … in TCGTCGGCAGCGTCAGATGTGTATAAGAGACAGTTTTTTTTTTTTTTTTTTTTTTTTT…TC). Details: aptamer strand: ATP DNA aptamer (quencher-CACCTGGGGGAGTATTGCGGAGGAAGG + anchor), 100 nM annealed; ATP concentration: 500 uM.
In short: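 Exposure to 500 uM ATP lasted 15 min at 22 °C before imaging, and a selection-buffer image was taken beforehand, for Cy3-labelled switching-strand clusters on a modified Illumina MiSeq flow-cell annealed to 100 nM quencher-labelled ATP aptamer. Five buffer/ATP cycles were run with NaOH stripping and re-annealing between them. The fluorescence ratio per cluster is summed target-cycle over summed buffer-cycle Cy3 intensity, averaged per switch-domain sequence. Clusters outside 100-1000 RFU were excluded.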

| Sequence | switch fluorescence ratio |
| --- | --- |
| GTAGTAAAAC | 1.69 ± 0.087 |
| GTAGTAAGAT | 1.07 ± 0.064 |
| GTAGTAGCTT | 1.017 ± 0.003 |
| GTAGTATTAG | 1.032 ± 0.0043 |
| GTAGTGCGGG | 0.9536 ± 0.0014 |
| GTAGTGGGGT | 0.987 ± 0.016 |
| GTAGTGTGGT | 0.999 ± 0.012 |
| GTAGTTTGCG | 0.928 ± 0.12 |
| GTAGTTTTAC | 1.042 ± 0.0071 |
| GTATAAAACT | 0.9986 ± 0.0087 |
| GTATAAATGC | 0.988 ± 0.046 |
| GTATAGGGGC | 0.977 ± 0.025 |
| GTATATAAGT | 0.98 ± 0.013 |
| GTATCAACGG | 1.034 ± 0.0028 |
| GTATGAAAAG | 0.9736 ± 0.0061 |
| GTATGAAGGG | 0.9756 ± 0.0049 |
| GTATGAGGTG | 1.02 ± 0.044 |
| GTATGCGAGG | 1 ± 0.08 |
| GTATGGCGGG | 1.008 ± 0.0032 |
| GTATGGGATG | 0.993 ± 0.015 |
| GTATGGGCGG | 0.991 ± 0.035 |
| GTATGGGGTT | 0.9641 ± 0.0085 |
| GTATGTGGGG | 0.996 ± 0.038 |
| GTATTAATAT | 1.01 ± 0.04 |
| GTATTAATGT | 1.01 ± 0.011 |

| Sequence | switch fluorescence ratio |
| --- | --- |
| GTATTAGCTG | 0.974 ± 0.0089 |
| GTATTAGTAA | 1.006 ± 0.0038 |
| GTATTAGTGT | 1.006 ± 0.0073 |
| GTATTATCTG | 0.9495 ± 0.0038 |
| GTATTGGGGG | 1.01 ± 0.043 |
| GTATTGGGTA | 0.99 ± 0.028 |
| GTATTTACTT | 1.02 ± 0.012 |
| GTATTTATGA | 0.974 ± 0.0056 |
| GTATTTGAGT | 0.991 ± 0.0031 |
| GTCAAATGGT | 0.972 ± 0.021 |
| GTCAATTTGA | 0.978 ± 0.062 |
| GTCACCAGAT | 1.002 ± 0.0077 |
| GTCACTATTG | 1.02 ± 0.0022 |
| GTCAGTATAA | 1.03 ± 0.059 |
| GTCAGTGGGG | 1.02 ± 0.052 |
| GTCAGTGGGT | 0.9682 ± 0.0079 |
| GTCATAGTTA | 0.983 ± 0.017 |
| GTCATGAGCG | 1 ± 0.012 |
| GTCATTTGTA | 0.9813 ± 0.0074 |
| GTCCAAAAAA | 1.08 ± 0.067 |
| GTCCGTGTTA | 0.994 ± 0.037 |
| GTCGAAGCCC | 1.03 ± 0.022 |
| GTCGCAAGTT | 1.01 ± 0.018 |
| GTCGCTAATG | 0.996 ± 0.016 |
| GTCGGATGCT | 1.02 ± 0.047 |

| Sequence | switch fluorescence ratio |
| --- | --- |
| GTCGGCAGGG | 1.06 ± 0.014 |
| GTCGGCGTAA | 0.9982 ± 0.0045 |
| GTCGGGAAGG | 1.013 ± 0.0026 |
| GTCGGGAGGA | 0.998 ± 0.025 |
| GTCGGTATTA | 0.984 ± 0.034 |
| GTCGTAATTG | 1.02 ± 0.016 |
| GTCGTAGCGA | 1.24 ± 0.016 |
| GTCGTAGTAC | 1.1974 ± 0.00024 |
| GTCGTATGAC | 1.08 ± 0.042 |
| GTCGTATTAG | 0.995 ± 0.022 |
| GTCGTCGGAG | 1.03 ± 0.019 |
| GTCGTCGTCG | 0.972 ± 0.012 |
| GTCGTCTAAG | 0.973 ± 0.051 |
| GTCTAAACTT | 1.01 ± 0.013 |
| GTCTAAGGGG | 1.11 ± 0.25 |
| GTCTCAAAGA | 1.017 ± 0.0083 |
| GTCTGGGGGA | 1.03 ± 0.042 |
| GTCTTGGCTC | 1.02 ± 0.031 |
| GTGAAAAACT | 1.03 ± 0.033 |
| GTGAAAACGT | 1.04 ± 0.035 |
| GTGAAAGATT | 1.02 ± 0.041 |
| GTGAAAGGAG | 0.997 ± 0.039 |
| GTGAAAGGGG | 1.11 ± 0.17 |
| GTGAAAGGGT | 1.02 ± 0.015 |
| GTGAAGGGGA | 1.09 ± 0.11 |

| Sequence | switch fluorescence ratio |
| --- | --- |
| GTGAAGGGTA | 0.985 ± 0.0081 |
| GTGAATCGGG | 0.973 ± 0.032 |
| GTGACATGGA | 1 ± 0.014 |
| GTGACCGGGA | 1 ± 0.027 |
| GTGACGAGGG | 0.981 ± 0.013 |
| GTGAGAGCGG | 0.963 ± 0.033 |
| GTGAGATCGG | 0.991 ± 0.029 |
| GTGAGATGGA | 0.953 ± 0.03 |
| GTGAGATGGG | 0.984 ± 0.03 |
| GTGAGATGTA | 0.991 ± 0.045 |
| GTGAGCCACG | 0.9932 ± 0.0014 |
| GTGAGGAGGG | 0.959 ± 0.07 |
| GTGAGGCCCC | 1 ± 0.02 |
| GTGAGGGTTG | 0.975 ± 0.03 |
| GTGAGGTTTT | 0.985 ± 0.021 |
| GTGAGTTGCT | 1.002 ± 0.005 |
| GTGATAATGG | 1.037 ± 0.0077 |
| GTGATACACG | 1.004 ± 0.0033 |
| GTGATAGATT | 1 ± 0.013 |
| GTGATAGGGG | 0.994 ± 0.053 |
| GTGATATAGC | 0.9807 ± 0.0071 |
| GTGATATCTG | 0.98 ± 0.038 |
| GTGATATGGG | 1.02 ± 0.036 |
| GTGATGAACG | 1.01 ± 0.092 |
| GTGATGGAAA | 0.964 ± 0.016 |

| Sequence | switch fluorescence ratio |
| --- | --- |
| GTGATGGGGT | 1.01 ± 0.038 |
| GTGATGTTGG | 1.02 ± 0.029 |
| GTGATTGCGG | 1.02 ± 0.069 |
| GTGATTGGCG | 0.971 ± 0.046 |
| GTGATTGGGG | 0.97 ± 0.028 |
| GTGATTGTTT | 1.009 ± 0.0091 |
| GTGCAAAATG | 1.0339 ± 0.00075 |
| GTGCGATTGG | 1.033 ± 0.0092 |
| GTGCGCAATT | 2.02 ± 0.082 |
| GTGCGGGCGC | 0.944 ± 0.04 |
| GTGCGTTTGG | 0.971 ± 0.022 |
| GTGCTAGTCT | 0.979 ± 0.067 |
| GTGCTTAGGA | 0.957 ± 0.029 |
| GTGCTTGGCC | 1 ± 0.047 |
| GTGCTTGTGT | 1.01 ± 0.04 |
| GTGCTTTGCG | 0.9928 ± 0.0014 |
| GTGCTTTTGG | 0.9997 ± 0.008 |
| GTGGAAAGGA | 0.991 ± 0.024 |
| GTGGAAAGGG | 1.01 ± 0.041 |
| GTGGACACAC | 1.04 ± 0.035 |
| GTGGACCAGT | 0.972 ± 0.024 |
| GTGGACGG | 0.9733 ± 0.0022 |
| GTGGAGAAAT | 1.04 ± 0.047 |
| GTGGAGACGG | 0.988 ± 0.034 |
| GTGGAGGGGG | 0.9841 ± 0.0047 |

| Sequence | switch fluorescence ratio |
| --- | --- |
| GTGGAGGGTA | 1.01 ± 0.029 |
| GTGGATTGGC | 0.982 ± 0.035 |
| GTGGATTGTG | 0.971 ± 0.067 |
| GTGGCAGGTG | 2.53 ± 0.053 |
| GTGGCATAGC | 0.981 ± 0.023 |
| GTGGCGGGGG | 1.01 ± 0.026 |
| GTGGCTAACT | 1.04 ± 0.035 |
| GTGGCTTAGG | 0.9796 ± 0.0035 |
| GTGGCTTTTT | 1 ± 0.037 |
| GTGGGACCTT | 1.06 ± 0.069 |
| GTGGGACTGT | 1.015 ± 0.0021 |
| GTGGGAGCTG | 0.99 ± 0.0079 |
| GTGGGAGG | 1.02 ± 0.025 |
| GTGGGAGGAC | 1.078 ± 0.0018 |
| GTGGGATAGG | 0.985 ± 0.038 |
| GTGGGATTGA | 0.9898 ± 0.0043 |
| GTGGGCATGG | 0.977 ± 0.022 |
| GTGGGCGGCG | 1.02 ± 0.064 |
| GTGGGGAATG | 0.986 ± 0.024 |
| GTGGGGAGCG | 0.994 ± 0.029 |
| GTGGGGAGTC | 0.992 ± 0.015 |
| GTGGGGAGTT | 0.99 ± 0.023 |
| GTGGGGCCTG | 0.955 ± 0.013 |
| GTGGGGCGTT | 1 ± 0.035 |
| GTGGGGGACA | 0.993 ± 0.04 |

| Sequence | switch fluorescence ratio |
| --- | --- |
| GTGGGGGGCG | 1 ± 0.042 |
| GTGGGGGTTC | 0.985 ± 0.041 |
| GTGGGGTCGA | 1.01 ± 0.04 |
| GTGGGGTTAT | 1 ± 0.013 |
| GTGGGTACCA | 0.968 ± 0.017 |
| GTGGGTATTA | 1 ± 0.023 |
| GTGGGTGATA | 0.994 ± 0.036 |
| GTGGGTGTGT | 1.02 ± 0.045 |
| GTGGTAAAGG | 0.9739 ± 0.0091 |
| GTGGTAAATG | 1.01 ± 0.035 |
| GTGGTAGCCG | 1.0015 ± 0.00029 |
| GTGGTCGATG | 0.953 ± 0.043 |
| GTGGTCGGGC | 1 ± 0.022 |
| GTGGTGAGGA | 0.953 ± 0.038 |
| GTGGTGATGT | 1.02 ± 0.012 |
| GTGGTGGCGG | 1.02 ± 0.017 |
| GTGGTGGGTT | 0.975 ± 0.018 |
| GTGGTGTAAT | 0.992 ± 0.0023 |
| GTGTAACGGG | 0.995 ± 0.027 |
| GTGTATACAT | 0.977 ± 0.066 |
| GTGTATCCGT | 0.994 ± 0.018 |
| GTGTCAATTA | 1.01 ± 0.021 |
| GTGTCAGCGG | 0.9762 ± 0.0088 |
| GTGTCCGTTT | 1.05 ± 0.039 |
| GTGTCTGGGG | 0.9858 ± 0.0076 |

| Sequence | switch fluorescence ratio |
| --- | --- |
| GTGTGAAGGC | 1.03 ± 0.02 |
| GTGTGACAAA | 1 ± 0.037 |
| GTGTGAGGAG | 1.05 ± 0.081 |
| GTGTGAGGGC | 0.948 ± 0.035 |
| GTGTGAGGGT | 1.04 ± 0.053 |
| GTGTGAGTTC | 1.01 ± 0.017 |
| GTGTGCGGTG | 0.982 ± 0.015 |
| GTGTGGGGAC | 0.988 ± 0.044 |
| GTGTGGGT | 1.002 ± 0.0028 |
| GTGTGTGGCA | 1.03 ± 0.038 |
| GTGTGTTGAT | 0.989 ± 0.029 |
| GTGTTAAGGT | 0.99 ± 0.019 |
| GTGTTAAGTT | 0.987 ± 0.034 |
| GTGTTAGGGG | 1.02 ± 0.069 |
| GTGTTATTAG | 1.005 ± 0.007 |
| GTGTTATTGC | 0.953 ± 0.011 |
| GTGTTCTGGA | 1.002 ± 0.006 |
| GTGTTGGATG | 0.958 ± 0.069 |
| GTGTTGGGGC | 0.985 ± 0.038 |
| GTGTTTAACC | 0.984 ± 0.021 |
| GTGTTTGGTG | 1 ± 0.032 |
| GTGTTTTCGT | 0.993 ± 0.03 |
| GTGTTTTGTT | 0.986 ± 0.034 |
| GTTAAAAATG | 1.04 ± 0.051 |
| GTTAAAATAC | 1.13 ± 0.014 |
